According to the supplement of paper PMC11246515:
± gives the standard deviation of the averaged measurements.

Assay: total protein half-life in vivo (active degradation + dilution); higher = more stable protein
[1] = E. coli NCM3722 delta-clpP, growth: N-lim chemostat, doubling time 6 h
[2] = E. coli NCM3722 delta-hslV, growth: N-lim chemostat, doubling time 6 h
[3] = E. coli NCM3722 delta-lon, growth: N-lim chemostat, doubling time 6 h
[4] = E. coli NCM3722 delta-smpB, growth: N-lim chemostat, doubling time 6 h
[5] = wild type E. coli NCM3722, growth: C-lim chemostat, doubling time 3 h
[6] = wild type E. coli NCM3722, growth: C-lim chemostat, doubling time 6 h
[7] = wild type E. coli NCM3722, growth: C-lim chemostat, doubling time 12 h
[8] = wild type E. coli NCM3722, growth: N-lim chemostat, doubling time 6 h
[9] = wild type E. coli NCM3722, growth: N-lim chemostat, doubling time 12 h
[10] = wild type E. coli NCM3722, growth: P-lim chemostat, doubling time 6 h
[11] = wild type E. coli NCM3722, growth: P-lim chemostat, doubling time 12 h
[12] = E. coli NCM3722 delta-clpP delta-lon delta-hslV, growth: N-lim chemostat, doubling time 6 h

Sequence | total protein half-life in vivo [1] [h] | total protein half-life in vivo [2] [h] | total protein half-life in vivo [3] [h] | total protein half-life in vivo [4] [h] | total protein half-life in vivo [5] [h] | total protein half-life in vivo [6] [h] | total protein half-life in vivo [7] [h] | total protein half-life in vivo [8] [h] | total protein half-life in vivo [9] [h] | total protein half-life in vivo [10] [h] | total protein half-life in vivo [11] [h] | total protein half-life in vivo [12] [h]
MIEFVYPHTQLVAGVDEVGRGPLVGAVVTAAVILDPARPIAGLNDSKKLSEKRRLALYEEIKEKALSWSLGRAEPHEIDELNILHATMLAMQRAVAGLHIAPEYVLIDGNRCPKLPMPAMAVVKGDSRVPEISAASILAKVTRDAEMAALDIVFPQYGFAQHKGYPTAFHLEKLAEHGATEHHRRSFGPVKRALGLAS | 1.93 | 1.11 | 2.38 ± 0.2 | 1.39 ± 0.024 | 1.7 ± 0.042 | 2.67 ± 0.43 | 3.19 | 1.19 | 1.91 | 1.43 | 2.12 ± 0.71 | –
MIEILHEYWKPLLWTDGYRFTGVAITLWLLILSVVIGGVLALFLAIGRVSSNKYIQFPIWLFTYIFRGTPLYVQLLVFYSGMYTLEIVKGTEFLNAFFRSGLNCTVLALTLNTCAYTTEIFAGAIRSVPHGEIEAARAYGFSTFKMYRCIILPSALRIALPAYSNEVILMLHSTALAFTATVPDLLKIARDINAATYQPFTAFGIAAVLYLIISYVLISLFRRAEKRWLQHVKPSSTH [P0AEU3] | 6.1106 ± 0.00052 | 6.07 | 6.71 ± 0.91 | 7.16 ± 0.54 | > 4 | 5.71 ± 0.54 | 11.3 ± 1.3 | 6.75 ± 0.49 | 11 ± 3.6 | 6.32 | 11.92 ± 0.04 | > 8
MIELVIVSRLLEYPDAALWQHQQEMFEAIAASKNLPKEDAHALGIFLRDLTTMDPLDAQAQYSELFDRGRATSLLLFEHVHGESRDRGQAMVDLLAQYEQHGLQLNSRELPDHLPLYLEYLAQLPQSEAVEGLKDIAPILALLSARLQQRESRYAVLFDLLLKLANTAIDSDKVAEKIADEARDDTPQALDAVWEEEQVKFFADKGCGDSAITAHQRRFAGAVAPQYLNITTGGQH [P0AF26] | – | 0.814 | 2.04 ± 0.028 | – | – | – | – | – | – | – | – | 3.83 ± 0.37
MIEVKHLKTLQALRNCGSLAAAAATLHQTQSALSHQFSDLEQRLGFRLFVRKSQPLRFTPQGEILLQLANQVLPQISQALQACNEPQQTRLRIAIECHSCIQWLTPALENFHKNWPQVEMDFKSGVTFDPQPALQQGELDLVMTSDILPRSGLHYSPMFDYEVRLVLAPDHPLAAKTRITPEDLASETLLIYPVQRSRLDVWRHFLQPAGVSPSLKSVDNTLLLIQMVAARMGIAALPHWVVESFERQGLVVTKTLGEGLWSRLYAAVRDGEQRQPVTEAFIRSARNHACDHLPFVKSAERPTYDAPTVRPGSPARL [P0A9F9] | 1.5 ± 0.033 | 0.933 ± 0.25 | 2.88 ± 0.57 | 1.1 ± 0.09 | 0.811 ± 0.024 | 1.17 ± 0.17 | 1.08 ± 0.34 | 1.14 ± 0.14 | 1.81 ± 0.27 | 0.609 | 1.87 | 5.1817 ± 0.0019
MIFSDWPWRHWRQVRGETIALRLNDEQLNWRELCARVDELASGFAVQGVVEGSGVMLRAWNTPQTLLAWLALLQCGARVLPVNPQLPQPLLEELLPNLTLQFALVPDGENTFPALTSLHIQLVEGAHAATWQPTRLCSMTLTSGSTGLPKAAVHTYQAHLASAQGVLSLIPFGDHDDWLLSLPLFHVSGQGIMWRWLYAGARMTVRDKQPLEQMLAGCTHASLVPTQLWRLLVNRSSVSLKAVLLGGAAIPVELTEQAREQGIRCFCGYGLTEFASTVCAKEADGLADVGSPLPGREVKIVNNEVWLRAASMAEGYWRNGQLVSLVNDEGWYATRDRGEMHNGKLTIVGRLDNLFFSGGEGIQPEEVERVIAAHPAVLQVFIVPVADKEFGHRPVAVMEYDHESVDLSEWVKDKLARFQQPVRWLTLPPELKNGGIKISRQALKEWVQRQQ | 4.96 | 3.92 | – | – | 3.2 | > 8 | 11.3 ± 1.4 | 4.4 | – | 6.327 ± 0.016 | 10.3 ± 1 | –
MIFSVDKVRADFPVLSREVNGLPLAYLDSAASAQKPSQVIDAEAEFYRHGYAAVHRGIHTLSAQATEKMENVRKRASLFINARSAEELVFVRGTTEGINLVANSWGNSNVRAGDNIIISQMEHHANIVPWQMLCARVGAELRVIPLNPDGTLQLETLPTLFDEKTRLLAITHVSNVLGTENPLAEMITLAHQHGAKVLVDGAQAVMHHPVDVQALDCDFYVFSGHKLYGPTGIGILYVKEALLQEMPPWEGGGSMIATVSLSEGTTWTKAPWRFEAGTPNTGGIIGLGAALEYVSALGLNNIAEYEQNLMHYALSQLESVPDLTLYGPQNRLGVIAFNLGKHHAYDVGSFLDNYGIAVRTGHHCAMPLMAYYNVPAMCRASLAMYNTHEEVDRLVTGLQRIHRLLG | 3.43 ± 0.26 | 3.39 ± 0.22 | 3.44 ± 0.05 | 3.41 ± 0.12 | 3.19 ± 0.48 | – | 8.7 ± 0.18 | 3.38 ± 0.26 | 5.21 ± 0.034 | 6.38 ± 0.54 | 11.3 ± 1.4 | 3.84 ± 0.34
MIGRLLRGGFMTAIYAYLYIPIIILIVNSFNSSRFGINWQGFTTKWYSLLMNNDSLLQAAQHSLTMAVFSATFATLIGSLTAVALYRYRFRGKPFVSGMLFVVMMSPDIVMAISLLVLFMLLGIQLGFWSLLFSHITFCLPFVVVTVYSRLKGFDVRMLEAAKDLGASEFTILRKIILPLAMPAVAAGWVLSFTLSMDDVVVSSFVTGPSYEILPLKIYSMVKVGVSPEVNALATILLVLSLVMVIASQLIARDKTKGNTGDVK [P0AFK6] | 6.54 | 5.12 | 5.66 | 5.65 ± 0.13 | 3.13 ± 0.76 | – | 14 | 6.23 ± 0.36 | 13.3 ± 0.85 | 6.269 ± 0.021 | 10.5 ± 2.2 | 5.93
MIGSLTARIFAIFWLTLALVLMLVLMLPKLDSRQMTELLDSEQRQGLMIEQHVEAELANDPPNDLMWWRRLFRAIDKWAPPGQRLLLVTTEGRVIGAERSEMQIIRNFIGQADNADHPQKKKYGRVELVGPFSVRDGEDNYQLYLIRPASSSQSDFINLLFDRPLLLLIVTMLVSTPLLLWLAWSLAKPARKLKNAADEVAQGNLRQHPELEAGPQEFLAAGASFNQMVTALERMMTSQQRLLSDISHELRTPLTRLQLGTALLRRRSGESKELERIETEAQRLDSMINDLLVMSRNQQKNALVSETIKANQLWSEVLDNAAFEAEQMGKSLTVNFPPGPWPLYGNPNALESALENIVRNALRYSHTKIEVGFAVDKDGITITVDDDGPGVSPEDREQIFRPFYRTDEARDRESGGTGLGLAIVETAIQQHRGWVKAEDSPLGGLRLVIWLPLYKRS [P0AE82] | 6.88 ± 0.076 | – | 5.674 ± 0.024 | 5.86 ± 0.35 | 2.971 ± 0.0099 | 5.92 ± 0.31 | 9.91 ± 1.8 | 6.07 ± 0.074 | 12.8 ± 0.79 | 5.98 ± 0.15 | 11.8 ± 0.38 | 6.5 ± 0.57
MIHAFIKKGCFQDSVSLMIISRKLSESENVDDVSVMMGTPANKALLDTTGFWHDDFNNATPNDICVAIRSEAADAGIAQAIMQQLEEALKQLAQGSGSSQALTQVRRWDSACQKLPDANLALISVAGEYAAELANQALDRNLNVMMFSDNVTLEDEIQLKTRAREKGLLVMGPDCGTSMIAGTPLAFANVMPEGNIGVIGASGTGIQELCSQIALAGEGITHAIGLGGRDLSREVGGISALTALEMLSADEKSEVLAFVSKPPAEAVRLKIVNAMKATGKPTVALFLGYTPAVARDENVWFASSLDEAARLACLLSRVTARRNAIAPVSSGFICGLYTGGTLAAEAAGLLAGHLGVEADDTHQHGMMLDADSHQIIDLGDDFYTVGRPHPMIDPTLRNQLIADLGAKPQVRVLLLDVVIGFGATADPAASLVSAWQKACAARLDNQPLYAIATVTGTERDPQCRSQQIATLEDAGIAVVSSLPEATLLAAALIHPLSPAAQQHTPSLLENVAVINIGLRSFALELQSASKPVVHYQWSPVAGGNKKLARLLERLQ | – | – | – | – | 2.65 | 4.54 | – | – | – | – | – | –
MIHSSVKRWGNSPAVRIPATLMQALNLNIDDEVKIDLVDGKLIIEPVRKEPVFTLAELVNDITPENLHENIDWGEPKDKEVW [P0AE72] | 2.31 ± 0.28 | 2.17 | 3.17 | 2.35 | – | 5.66 | – | 1.94 | 5.05 ± 2.4 | 1.3 | 4.48 | 5.19 ± 0.15
MIIATAGHVDHGKTTLLQAITGVNADRLPEEKKRGMTIDLGYAYWPQPDGRVPGFIDVPGHEKFLSNMLAGVGGIDHALLVVACDDGVMAQTREHLAILQLTGNPMLTVALTKADRVDEARVDEVERQVKEVLREYGFAEAKLFITAATEGRGMDALREHLLQLPEREHASQHSFRLAIDRAFTVKGAGLVVTGTALSGEVKVGDSLWLTGVNKPMRVRALHAQNQPTETANAGQRIALNIAGDAEKEQINRGDWLLADVPPEPFTRVIVELQTHTPLTQWQPLHIHHAASHVTGRVSLLEDNLAELVFDTPLWLADNDRLVLRDISARNTLAGARVVMLNPPRRGKRKPEYLQWLASLARAQSDADALSVHLERGAVNLADFAWARQLNGEGMRELLQQPGYIQAGYSLLNAPVAARWQRKILDTLATYHEQHRDEPGPGRERLRRMALPMEDEALVLLLIEKMRESGDIHSHHGWLHLPDHKAGFSEEQQAIWQKAEPLFGDEPWWVRDLAKETGTDEQAMRLTLRQAAQQGIITAIVKDRYYRNDRIVEFANMIRDLDQECGSTCAADFRDRLGVGRKLAIQILEYFDRIGFTRRRGNDHLLRDALLFPEK | 4.93 ± 0.33 | 5.22 ± 0.44 | 5.39 ± 0.23 | 4.57 ± 0.11 | 2.77 ± 0.057 | 5.56 ± 0.59 | 9.26 ± 0.52 | 4.97 ± 0.16 | 8.6 ± 0.22 | 4.25 ± 0.27 | 6.81 ± 0.26 | 6.2 ± 0.45
MIIGNIHNLQPWLPQELRQAIEHIKAHVTAETPKGKHDIEGNRLFYLISEDMTEPYEARRAEYHARYLDIQIVLKGQEGMTFSTQPAGAPDTDWLADKDIAFLPEGVDEKTVILNEGDFVVFYPGEVHKPLCAVGAPAQVRKAVVKMLMA [P0AF96] | 4.23 ± 2.1 | 3.43 | – | 3.75 ± 0.1 | – | – | 8.12 ± 0.22 | 3.18 ± 0.1 | 5.175 ± 0.0007 | 4.55 ± 0.89 | 10.1 ± 0.29 | 4.25 ± 0.25
MIIHFTLNGAPQELTVNPGENVQKLLFNMGMHSVRNSDDGFGFAGSDAIIFNGNIVNASLLIAAQLEKADIRTAESLGKWNELSLVQQAMVDVGVVQSGYNDPAAALIITDLLDRIAAPTREEIDDALSGLFSRDAGWQQYYQVIELAVARKNNPQATIDIAPTFRDDLEVIGKHYPKTDAAKMVQAKPCYVEDRVTADACVIKMLRSPHAHALITHLDVSKAEALPGVVHVITHLNCPDIYYTPGGQSAPEPSPLDRRMFGKKMRHVGDRVAAVVAESEEIALEALKLIDVEYEVLKPVMSIDEAMAEDAPVVHDEPVVYVAGAPDTLEDDNSHAAQRGEHMIINFPIGSRPRKNIAASIHGHIGDMDKGFADADVIIERTYNSTQAQQCPTETHICFTRMDGDRLVIHASTQVPWHLRRQVARLVGMKQHKVHVIKERVGGGFGSKQDILLEEVCAWATCVTGRPVLFRYTREEEFIANTSRHVAKVTVKLGAKKDGRLTAVKMDFRANTGPYGNHSLTVPCNGPALSLPLYPCDNVDFQVTTYYSNICPNGAYQGYGAPKGNFAITMALAELAEQLQIDQLEIIERNRVHEGQELKILGAIGEGKAPTSVPSAASCALEEILRQGREMIQWSSPKPQNGDWHIGRGVAIIMQKSGIPDIDQANCMIKLESDGTFIVHSGGADIGTGLDTVVTKLAAEVLHCPPQDVHVISGDTDHALFDKGAYASSGTCFSGNAARLAAENLREKILFHGAQMLGEPVADVQLATPGVVRGKKGEVSFGDIAHKGETGTGFGSLVGTGSYITPDFAFPYGANFAEVAVNTRTGEIRLDKFYALLDCGTPVNPELALGQIYGATLRAIGHSMSEEIIYDAEGHPLTRDLRSYGAPKIGDIPRDFRAVLVPSDDKVGPFGAKSISEIGVNGAAPAIATAIHDACGIWLREWHFTPEKILTALEKI | – | – | – | – | – | – | 9.16 | – | – | – | – | > 8
